The term stoichiometry N denotes the number of molecules, sites or subunits per partner or assembly.

The target in this test is MBP-transposase fusion protein (reconstituted ancestral Hsmar1 transposase) (human (reconstructed ancestral sequence of the human Hsmar1 transposon)). Nature of the test: SEC. On the technique in general: Size exclusion chromatography separates by hydrodynamic size, large species first.

“MBP-transposase fusion protein (reconstituted ancestral Hsmar1 transposase) (enzyme)”: the stoichiometry N is 2.

The record behind these values is PMC2800235.
